Laboratory results from PMC4939875 (Nature, 2016).

B1: TONSL WT: siRNA resistant GFP-TONSL, wild type, inducible in U-2-OS (protein)
chain: MSLERELRQLSKAKAKAQRAGQRREEAALCHQLGELLAGHGRYAEALEQHWQELQLRERADDPLGCAVAHRKIGERLAEMEDYPAALQHQHQYLELAHSLRNHTELQRAWATIGRTHLDIYDHCQSRDALLQAQAAFEKSLAIVDEELEGTLAQGELNEMRTRLYLNLGLTFESLQQTALCNDYFRKSIFLAEQNHLYEDLFRARYNLGTIHWRAGQHSQAMRCLEGARECAHTMRKRFMESECCVVIAQVLQDLGDFLAAKRALKKAYRLGSQKPVQRAAICQNLQHVLAVVRLQQQLEEAEGRDPQGAMVICEQLGDLFSKAGDFPRAAEAYQKQLRFAELLDRPGAERAIIHVSLATTLGDMKDHHGAVRHYEEELRLRSGNVLEEAKTWLNIALSREEAGDAYELLAPCFQKALSCAQQAQRPQLQRQVLQHLHTVQLRLQPQEAPETETRLRELSVAEDEDEEEEAEEAAATAESEALEAGEVELSEGEDDTDGLTPQLEEDEELQGHLGRRKGSKWNRRNDMGETLLHRACIEGQLRRVQDLVRQGHPLNPRDYCGWTPLHEACNYGHLEIVRFLLDHGAAVDDPGGQGCEGITPLHDALNCGHFEVAELLLERGASVTLRTRKGLSPLETLQQWVKLYRRDLDLETRQKARAMEMLLQAAASGQDPHSSQAFHTPSSLLFDPETSPPLSPCPEPPSNSTRLPEASQAHVRVSPGQAAPAMARPRRSRHGPASSSSSSEGEDSAGPARPSQKRPRCSATAQRVAAWTPGPASNREAATASTSRAAYQAAIRGVGSAQSRLGPGPPRGHSKALAPQAALIPEEECLAGDWLELDMPLTRSRRPRPRGTGDNRRPSSTSGSDSEESRPRARAKQVRLTCMQSCSAPVNAGPSSLASEPPGSPSTPRVSEPSGDSSAAGQPLGPAPPPPIRVRVQVQDHLFLIPVPHSSDTHSVAWLAEQAAQRYYQTCGLLPRLTLRKEGALLAPQDLIPDVLQSNDEVLAEVTSWDLPPLTDRYRRACQSLGQGEHQQVLQAVELQGLGLSFSACSLALDQAQLTPLLRALKLHTALRELRLAGNRLGDKCVAELVAALGTMPSLALLDLSSNHLGPEGLRQLAMGLPGQATLQSLEELDLSMNPLGDGCGQSLASLLHACPLLSTLRLQACGFGPSFFLSHQTALGSAFQDAEHLKTLSLSYNALGAPALARTLQSLPAGTLLHLELSSVAAGKGDSDLMEPVFRYLAKEGCALAHLTLSANHLGDKAVRDLCRCLSLCPSLISLDLSANPEISCASLEELLSTLQKRPQGLSFLGLSGCAVQGPLGLGLWDKIAAQLRELQLCSRRLCAEDRDALRQLQPSRPGPGECTLDHGSKLFFRRL
modifications: left off: GFP, end not stated, kept
B2: Full length TONSL: in vitro-translated full length TONSL (protein)
chain: B1 chain
modifications: 35S-methionine
B3: WT: human TONSL Ankyrin Repeat Domain (residues 512–692), wild type (protein)
chain: GHLGRRKGSKWNRRNDMGETLLHRACIEGQLRRVQDLVRQGHPLNPRDYCGWTPLHEACNYGHLEIVRFLLDHGAAVDDPGGQGCEGITPLHDALNCGHFEVAELLLERGASVTLRTRKGLSPLETLQQWVKLYRRDLDLETRQKARAMEMLLQAAASGQDPHSSQAFHTPSSLLFDPETS
modifications: left off: GST, end not stated, cleaved

Experiments:
[1] = tested on: U-2-OS cells; experiment: Clonogenic assay upon GFP-TONSL induction; type: cell-based; settings: siTONSL; presence and absence of CPT 50 nM 24 h; 12-15 days; +tet
[2] = tested on: histones H3–H4; experiment: Pull-down with recombinant histones H3–H4; type: binding; settings: GST-ARD with H3–H4 tetramers, 20 mM Tris pH 7.5, 0.5 M NaCl, 23 °C, 1 h; IVT full length TONSL with H3.1–H4 beads, 2 h

Molecule	viability of TONSL depleted cells (colony formation) [1]	direct binding to histones H3–H4 in vitro [2]
B1	partially rescued viability	–
B2	–	bound directly to histones H3–H4
B3	–	bound directly to histones H3–H4
